The results in this text go back to patent US20110008302A1, “Compositions and methods for immortalizing cells and screening for anti-cancer agents” (priority 2007, published 2011).

One series relates to H3K4me3 peptide. The series is described as follows: Fluorescence coupled demethylation assay. It counts as biochemical. The following applies: bacterially expressed fragment. Here is the method:
(§1) For assay of in vitro histone demethylation, cells from a confluent 15 cm dish were harvested and the cell pellet was resuspended in 5 packed cell volumes of Buffer A (10 mM HEPES pH 7.9, 1.5 mM MgCl2, 10 mM KCl, 0.5 mM DTT, and 0.2 mM PMSF) and centrifuged at 1500 rpm for 5 minutes. Buffer A was added up to a final of 3 original packed cell volumes and the suspension was incubated on ice for 10 minutes. Cells were transferred to a Wheaton A Dounce homogenizer and lysed with 10 strokes. Nuclei were pelleted by centrifuging at maximum speed for 5 min in a microcentrifuge. Nuclei were resuspended in Buffer B (20 mM HEPES, pH 7.9, 100 mM KCl, 0.5 mM DTT and 0.2 mM PMSF) and disrupted by sonication. After preclearing with 20 μl protein A-agarose beads, the supernatant was incubated with either myc- or hemagglutinin-specific monoclonal antibody (5 μg/sample) and 20 μl protein A-agarose beads overnight at 4° C., the sample was washed three times with 1 ml Buffer B and the purified immune complex was incubated overnight at 4° C. with myc or HA peptide to release Ndy1/KDM2B from the beads. Demethylation reactions were carried out in 10 mM HEPES pH 7.9, 50 mM NaCl, 1 mM α-ketoglutarate, 2 mM ascorbate, 30-70 μM Fe(NH4)2(SO4)2, 0.25 mg/ml BSA and contained 6 μg of bulk histone per 90 μl reaction. Reactions were incubated at 37° C. for 1-3 hours and analyzed by 18% SDS-PAGE and Western-blotting with histone specific antibodies.
(§2) Fluorescent assays were carried out as previously described (Couture, J. F., et al. (2007) Nat Struct Mol Biol 14, 689-95) under the reaction conditions above. One unit of enzyme activity is determined as amount of Ndy1 that produces 1 μmol of formaldehyde per min, incubated with 340 μM peptide substrate at 37° C. under the above conditions. The sequences of the H3K4(me3) and H3K36(me2) peptides used in the biochemical studies were: ART-K(me3)-QTARKST (SEQ ID NO: 79) and ATGGV-K(me2)-KPHRY (SEQ ID NO: 80) respectively and were synthesized at Tufts University Core facility.
(§3) Using a fluorescence coupled demethylation assay, a bacterially expressed mouse Ndy1 fragment containing the JmjC, CXXC and PHD domains (aa 171-707) was here shown to demethylate both H3K36me2 and H3K4me3 peptides, with high and low efficiencies respectively (FIG. 20 panel B and FIG. 22). Cloning and bacterial expression of Ndy1 fragments was accomplished using fragments 1-701 and 171-701 of mouse Ndy1, which were amplified using specific primers and were cloned directly into pET102/DTOPO vector (Invitrogen) using of the TOPO-cloning methodology. The C-terminally His-tagged fusion proteins were purified from BL21(DE3) cells using Ni2+agarose beads (QIAGEN) and according to the manufacturer instructions. Flow cytometry analysis of histone modifications was determined in HEK293 cells transfected with either pIRES-GFP-empty vector (Stratagene) or the same vector containing the wild type or the H283Y JmjC domain point mutant of Ndy1. After 48 hours, cells were harvested and fixed in 1% paraformaldehyde for 10 min. Cells were washed twice with PBS, and were permeabilized with 0.5% saponin in PBS for 20 min and were blocked with 3% bovine serum albumin (BSA). […] (Alexa Fluor 635, Invitrogen, #A31577) followed by fluorescence-activated cell sorting using a CyAn high performance flow cytometer (Dako Cytomation).

The subject of another series is H3K36me2 peptide. Put plainly: Fluorescence coupled demethylation assay. It counts as biochemical. The following applies: for efficiency of demethylation of H3K36me2 peptide: bacterially expressed fragment. Here is the method: as §1, §2, §3
Another series relates to MEFs. The series is described as follows: Ndy1 overexpression in serially passaged MEFs, real time PCR of p16Ink4a and p19Arf mRNA. It counts as cell-based, mouse. As for the experimental part: FIG. 14 panel B is a set of bar graphs of MEFs overexpressing Ndy1 that were plated at a concentration of 10^5 cells per 6 cm dish and serially passaged. In passage P5, P10, and P15 total mRNA was isolated and analyzed by real time PCR for the relative mRNA levels of p16^Ink4a and p19^Arf. The graphs show the fold decrease of p16^Ink4a and p19^Arf mRNAs in MEFs that overexpress Ndy1 normalized to control empty-vector transduced cells from 3 independent infections.
RNA was isolated with the RNeasy mini kit (Qiagen #74104). cDNAs of these mRNAs were synthesized with RETROscript (Ambion #AM1710). PCR reactions were carried out in triplicate with iQ SYBRGreen Supermix (Bio-Rad #170-8882) in an Opticon2 continuous fluorescence detector (MJ Research). The following set of primers have been used to amplify the mouse: Ezh2: F-5′-ACTGCTGG CACCGTCTGATG-′3 (SEQ ID NO: 38) and R-5′-TCCTGAGAA ATAATCTCCCCACAG-′3 (SEQ ID NO: 39),
p16^Ink4a: F-5′-GTGTGCATGA CGTGCGGG-′3 (SEQ ID NO: 42) and R-5′-GCAGTTCGA ATCTGCACCGTAG-′3 (SEQ ID NO: 43), p19^Arf: F-5′GCTCTGGCT TTCGTGAACATG-′3 (SEQ ID NO: 44) and R-5′-TCGAATCTG CACCGTAG′TTGAG'3 (SEQ ID NO: 45),
Replicative senescence is characterized by the dramatic upregulation of p16^Ink4a (>100-fold, FIG. 16) and p19^Arf (>10-fold). Since, p16^Ink4a inhibits the cyclin D/CDK4-6 complex that mediates the phosphorylation of Rb at Ser807/811, and Ndy1 promotes the phosphorylation of Rb at this site as shown in Examples herein, whether the phosphorylation of Rb in Ndy1-transduced MEFs can be linked to a defect in the induction of the Ink4a/Arf locus was tested. To address this question, the relative levels of p16^Ink4a and p19^Arf mRNA in passaged MEFs stably expressing Ndy1 were determined in examples herein.

The next series has as its system HEK293 cells. The series is described as follows: Flow cytometry of global histone modifications in HEK293 cells transfected with Ndy1. It counts as cell-based, human. The note with it: HEK293 cells transiently transfected with Ndy1.
Text: as §3, with “Ndy1.” for “Ndy1. After 48 hours, cells were harvested and fixed in 1% paraformaldehyde for 10 min. Cells were washed twice with PBS, and were permeabilized with 0.5% saponin in PBS for 20 min and were blocked with 3% bovine serum albumin (BSA).”
To confirm the activity and specificity of the Ndy1 histone demethylase in vivo, flow cytometry was used to quantitatively assess the global levels of histone H3K36me2 and H3K4me3 in HEK293 cells transiently transfected with Ndy1.

The test system of a further series is bulk histone. Put plainly: In vitro histone demethylation assay with immunoprecipitated native Ndy1 (Western blot). It counts as biochemical. The note with it: mouse and human Ndy1 immunoprecipitated from MEFs and IMR90 cells.

B1: Ndy1 fragment (aa 171-707): bacterially expressed mouse Ndy1 fragment containing the JmjC, CXXC and PHD domains (protein, UniProt Q6P1G2 171-707, looked up, fragment)
chain: MWPQHLKEKQTEATNALAEMKYPKVKKYCLMSVKGCFTDFHIDFGGTSVWYHVFRGGKIFWLIPPTLHNLALYEEWVLSGKQSDIFLGDRVERCQRIELKQGYTFFIPSGWIHAVYTPVDSLVFGGNILHSFNVPMQLRIYEIEDRTRVQPKFRYPFYYEMCWYVLERYVYCVTQRSYLTQEYQRELMLIDAPRKTSVDGFSSDSWLDMEEESCEQQPQEEEEEEEDKEEEGDGADKTPKPPTDDPTSPTSTPPEDQDSTGKKPKAPAIRFLKRTLSNESEESVKSTSMPTDDPKTPTGSPATEVSTKWTHLTEFELKGLKALVEKLESLPENKKCVPEGIEDPQALLEGVKNVLKEHVDDDPTLAITGVPVVSWPKKTAKNRVVGRPKGKLGPASAVKLAANRTTAGARRRRTRCRKCEACLRTECGECHFCKDMKKFGGPGRMKQSCIMRQCIAPVLPHTAVCLVCGEAGKEDTVEEEEGKFNLMLMECSICNEIIHPGCLKIKESEGVVNDELPNCWECPKCNHAGKTGKQKRG
Consider B1, for which the “efficiency of demethylation of H3K4me3 peptide” value in the series with H3K4me3 peptide is reported as “low”. Besides, in the series with H3K36me2 peptide, the “efficiency of demethylation of H3K36me2 peptide” value is on record as “high”.

B2: 171-707 Ndy1 fragment containing the Y221A mutation: Ndy1 fragment with Y221A mutation, which abolishes the demethylase activity (protein)
chain: MWPQHLKEKQTEATNALAEMKYPKVKKYCLMSVKGCFTDFHIDFGGTSVWAHVFRGGKIFWLIPPTLHNLALYEEWVLSGKQSDIFLGDRVERCQRIELKQGYTFFIPSGWIHAVYTPVDSLVFGGNILHSFNVPMQLRIYEIEDRTRVQPKFRYPFYYEMCWYVLERYVYCVTQRSYLTQEYQRELMLIDAPRKTSVDGFSSDSWLDMEEESCEQQPQEEEEEEEDKEEEGDGADKTPKPPTDDPTSPTSTPPEDQDSTGKKPKAPAIRFLKRTLSNESEESVKSTSMPTDDPKTPTGSPATEVSTKWTHLTEFELKGLKALVEKLESLPENKKCVPEGIEDPQALLEGVKNVLKEHVDDDPTLAITGVPVVSWPKKTAKNRVVGRPKGKLGPASAVKLAANRTTAGARRRRTRCRKCEACLRTECGECHFCKDMKKFGGPGRMKQSCIMRQCIAPVLPHTAVCLVCGEAGKEDTVEEEEGKFNLMLMECSICNEIIHPGCLKIKESEGVVNDELPNCWECPKCNHAGKTGKQKRG
modifications: left off: small tags and cut ends
For B2, in the series on H3K4me3 peptide, the “efficiency of demethylation of H3K4me3 peptide” value is on record as “failed to demethylate”. Also, in the series on H3K36me2 peptide, the “efficiency of demethylation of H3K36me2 peptide” value was “failed to demethylate”.

B3: Ndy1: JmjC domain-containing histone H3 demethylase, overexpressed from retroviral constructs or immunoprecipitated (protein, UniProt Q6P1G2 1-1309, looked up)
Lysine-specific demethylase 2B: MEAEKDSGRRLRAIDRQRYDENEDLSDVEEIVSVRGFSLEEKLRSQLYQGDFVHAMEGKDFNYEYVQREALRVPLVFRDKDGLGIKMPDPDFTVRDVKLLVGSRRLVDVMDVNTQKGTEMSMSQFVRYYETPEAQRDKLYNVISLEFSHTKLEHLVKRPTVVDLVDWVDNMWPQHLKEKQTEATNALAEMKYPKVKKYCLMSVKGCFTDFHIDFGGTSVWYHVFRGGKIFWLIPPTLHNLALYEEWVLSGKQSDIFLGDRVERCQRIELKQGYTFFIPSGWIHAVYTPVDSLVFGGNILHSFNVPMQLRIYEIEDRTRVQPKFRYPFYYEMCWYVLERYVYCVTQRSYLTQEYQRELMLIDAPRKTSVDGFSSDSWLDMEEESCEQQPQEEEEEEEDKEEEGDGADKTPKPPTDDPTSPTSTPPEDQDSTGKKPKAPAIRFLKRTLSNESEESVKSTSMPTDDPKTPTGSPATEVSTKWTHLTEFELKGLKALVEKLESLPENKKCVPEGIEDPQALLEGVKNVLKEHVDDDPTLAITGVPVVSWPKKTAKNRVVGRPKGKLGPASAVKLAANRTTAGARRRRTRCRKCEACLRTECGECHFCKDMKKFGGPGRMKQSCIMRQCIAPVLPHTAVCLVCGEAGKEDTVEEEEGKFNLMLMECSICNEIIHPGCLKIKESEGVVNDELPNCWECPKCNHAGKTGKQKRGPGFKYASNLPGSLLKEQKMNRDNKEGQEPAKRRSECEEAPRRRSDEHPKKVPADGILRRKSDDVHLRRKRKYEKPQELSGRKRASSLQTSPGSSSHLSPRPPLGSSLSPWWRSSLTYFQQQLKPGKEDKLFRKKRRSWKNAEDRLSLANKPLRRFKQEPEDDLPEAPPKTRESDQSRSSSPTAGPSTEGAEGPEEKKKVKMRRKRRLVNKELSKELSKELNHEIQKTESTLAHESQQPIKSEPESENDEPKRPLSHCERPHRFSKGLNGTPRELRHSLGPGLRSPPRVMSRPPPSASPPKCIQMERHVIRPPPISPPPDSLPLDDGAAHVMHREVWMAVFSYLSHRDLCVCMRVCRTWNRWCCDKRLWTRIDLNRCKSITPLMLSGIIRRQPVSLDLSWTNISKKQLSWLINRLPGLRDLVLSGCSWIAVSALCSSSCPLLRTLDVQWVEGLKDAQMRDLLSPPTDNRPGQMDNRSKLRNIVELRLAGLDITDVSLRLIIRHMPLLSKLQLSYCNHINDQSINLLTAVGTTTRDSLTEVNLSDCNKVTDLCLSFFKRCGNICHIDLRYCKQVTKEGCEQFIAEMSVSVQFGQVEEKLLQKLS
On to B3, for which the “attenuation of induction of p16Ink4a” value with MEFs (passage 5, relative to empty vector transduced MEFs) is on record as “about 55%”; with MEFs (passage 10, relative to empty vector transduced MEFs), about 62%; with MEFs (passage 15, relative to empty vector transduced MEFs), about 90%. For the same molecule, the results for the “reduction of induction of p19Arf” value in the series on MEFs (passage 10) and in the series with MEFs (passage 15) were “about 43%” and about 34%, respectively. Also, the “histone H3K4me3 demethylase activity in vivo” value in the series with HEK293 cells is reported as “weak”. In the series with HEK293 cells, the “histone H3K36me2 demethylase activity in vivo” value is reported as “strong”. The “specific activity towards the H3K36me2 versus the H3K4me3 peptide” value in the series with H3K36me2 peptide (Ndy1 fragments expressed in E. coli) was “three times higher”. The H3K4me3 demethylase activity result in the series with bulk histone is “weak”. Besides, in the series on bulk histone, the H3K36me2 demethylase activity result was “strong”.
